Data taken from patent publication US20160168209A1.

Key:
[1] = target: Gamma globulin (Nichiyaku), used as a human IgG (human); assay: affinity chromatography, dynamic binding capacity at 5% breakthrough; ligand on HiTrap NHS agarose at 6.4 mg/mL-gel
[2] = target: Gamma globulin (Nichiyaku), used as a human IgG (human); assay: affinity chromatography, dynamic binding capacity at 5% breakthrough; ligand on HiTrap NHS agarose at 12.5 mg/mL-gel
[3] = target: Gamma globulin (Nichiyaku), used as a human IgG (human); assay: affinity chromatography, dynamic binding capacity at 5% breakthrough; ligand on cross-linked cellulose beads at 11.0 mg/mL-gel
[4] = target: Gamma globulin (Nichiyaku), used as a human IgG (human); assay: affinity chromatography, dynamic binding capacity at 5% breakthrough; ligand on HiTrap NHS agarose at 9.5 mg/mL-gel
[5] = target: human immunoglobulin G preparation separated from human plasma (Gammagard, Baxter) (human); assay: SPR (Biacore 3000), human IgG on CM5 chip, ligand flowed at 16-128 nM, 1:1 fit, 25 C
[6] = target: Gamma globulin (Nichiyaku), used as a human IgG (human); assay: affinity chromatography, dynamic binding capacity at 5% breakthrough; ligand on HiTrap NHS agarose at 6.8 mg/mL-gel
[7] = target: Gamma globulin (Nichiyaku), used as a human IgG (human); assay: affinity chromatography, dynamic binding capacity at 5% breakthrough; ligand on HiTrap NHS agarose at 14.1 mg/mL-gel
[8] = target: human immunoglobulin G preparation separated from human plasma (Gammagard, Baxter) (human); assay: SPR (Biacore 3000), human IgG on CM5 chip, as in Example 3
[9] = target: Gamma globulin (Nichiyaku), used as a human IgG (human); assay: affinity chromatography, dynamic binding capacity at 5% breakthrough; ligand on HiTrap NHS agarose at 5.1 mg/mL-gel
[10] = target: Gamma globulin (Nichiyaku), used as a human IgG (human); assay: affinity chromatography, dynamic binding capacity at 5% breakthrough; ligand on HiTrap NHS agarose at 9.0 mg/mL-gel
[11] = target: Gamma globulin (Nichiyaku), used as a human IgG (human); assay: affinity chromatography, dynamic binding capacity at 5% breakthrough; ligand on HiTrap NHS agarose at 6.9 mg/mL-gel
[12] = target: Gamma globulin (Nichiyaku), used as a human IgG (human); assay: affinity chromatography, dynamic binding capacity at 5% breakthrough; ligand on HiTrap NHS agarose at 13.5 mg/mL-gel
[13] = target: Gamma globulin (Nichiyaku), used as a human IgG (human); assay: affinity chromatography, dynamic binding capacity at 5% breakthrough; ligand on HiTrap NHS agarose at 4.8 mg/mL-gel
[14] = target: Gamma globulin (Nichiyaku), used as a human IgG (human); assay: affinity chromatography, dynamic binding capacity at 5% breakthrough; ligand on HiTrap NHS agarose at 9.4 mg/mL-gel
[15] = target: Gamma globulin (Nichiyaku), used as a human IgG (human); assay: affinity chromatography, dynamic binding capacity at 5% breakthrough; ligand on cross-linked cellulose beads at 11.6 mg/mL-gel
[16] = target: Gamma globulin (Nichiyaku), used as a human IgG (human); assay: affinity chromatography, dynamic binding capacity at 5% breakthrough; ligand on HiTrap NHS agarose at 8.8 mg/mL-gel
[17] = target: Gamma globulin (Nichiyaku), used as a human IgG (human); assay: affinity chromatography, dynamic binding capacity at 5% breakthrough; ligand on HiTrap NHS agarose at 5.7 mg/mL-gel
[18] = target: Gamma globulin (Nichiyaku), used as a human IgG (human); assay: affinity chromatography, dynamic binding capacity at 5% breakthrough; ligand on HiTrap NHS agarose at 10.9 mg/mL-gel

Question: For “C-K04R/K07R/G29A/S33R/K35R/K42R/K49Q/K50R.5d (designed binder)”, which 5% antibody dBC [1] is on record?
Answer: The 5% antibody dBC was 45.8 mg/mL-gel.

Question: What about the 5% antibody dBC [2] of the same substance?
Answer: The 5% antibody dBC was 61.3 mg/mL-gel.

Question: And the 5% antibody dBC [3]?
Answer: Its 5% antibody dBC is 46.1 mg/mL-gel.

Question: What about the 5% antibody dBC [4] of the same substance?
Answer: Its 5% antibody dBC is 55.3 mg/mL-gel.

Question: What about the Ka [5] of the same substance?
Answer: Its Ka is 1.5e+09 M⁻¹.

Question: “C-K04R/K07R/G29A/S33R/K35R/K42R/K49Q/K50R.4d (designed binder)” was tested. Which 5% antibody dBC [6] did it give?
Answer: The 5% antibody dBC was 42.6 mg/mL-gel.

Question: What about the 5% antibody dBC [7] of the same substance?
Answer: The 5% antibody dBC was 62.1 mg/mL-gel.

Question: What about the Ka [5] of the same substance?
Answer: Its Ka is 1e+09 M⁻¹.

Question: Which results are given for “C-K04R/K07R/G29A/S33L/K35R/K42R/K49R/K50R/(K58R except for C-terminal).3d (designed binder)”?
Answer: Ka [8]: 2.2e+09 M⁻¹; 5% antibody dBC [9]: 49.1 mg/mL-gel; 5% antibody dBC [10]: 66.2 mg/mL-gel

Question: Which 5% antibody dBC [11] does the source give for “C-K04R/K07R/G29A/S33R/K35R/K42R/K49Q/K50R(C-terminal K58R).4d (designed binder)” here?
Answer: The 5% antibody dBC was 41.8 mg/mL-gel.

Question: What about the Ka [5] of the same substance?
Answer: The Ka was 1.1e+09 M⁻¹.

Question: And the 5% antibody dBC [12]?
Answer: The 5% antibody dBC was 62.1 mg/mL-gel.

Question: For “C-K04R/K07R/G29A/S33L/K35R/K42R/K49R/K50R.3d (designed binder)”, which 5% antibody dBC [13] is on record?
Answer: The 5% antibody dBC was 56.5 mg/mL-gel.

Question: And the Ka [5]?
Answer: Its Ka is 2.1e+09 M⁻¹.

Question: What about the 5% antibody dBC [14] of the same substance?
Answer: The 5% antibody dBC was 73.4 mg/mL-gel.

Question: With C-G29A/S33E.5d (designed binder) as the substance, how does the 5% antibody dBC [15] read?
Answer: Its 5% antibody dBC is 36.8 mg/mL-gel.

Question: What about the 5% antibody dBC [16] of the same substance?
Answer: Its 5% antibody dBC is 50.3 mg/mL-gel.

Question: And the 5% antibody dBC [17]?
Answer: The 5% antibody dBC was 38.3 mg/mL-gel.

Question: And the 5% antibody dBC [18]?
Answer: Its 5% antibody dBC is 54.4 mg/mL-gel.

Question: What about the Ka [5] of the same substance?
Answer: The Ka was 6.3e+09 M⁻¹.
